{"source": "paper PMC5514143", "about": "“A Drug Carrier for Sustained Zero-Order Release of Peptide Therapeutics” (Scientific Reports, 2017)", "key": {"[1]": {"details": "administered via injection; cited from earlier work", "excerpt": "The key goal of a release system is to maintain the plasma drug concentration within the therapeutic window for a prolonged period of time. For zero-order release carriers, as the drug is released at constant rate, it will be possible to maintain the plasma drug concentration constant. This will avoid a plasma drug concentration which is too high to exert toxic effects, or too low to fail to exert therapeutic effects, and therefore lead to the best outcome. As expected, for rats with implanted PEG-sCT/TA films, the plasma concentration of PEG-sCT remains almost constant (Fig. 7A). When a 20 bi ..."}, "[2]": {"assay": "Circular dichroism of PEG-sCT released from the film", "assay_type": "physicochemical", "details": "CD 190-260 nm, room temperature, 0.1 cm path cell; release media", "description": "UV-vis absorption spectra were recorded on a UV-1800 spectrophotometer (SHIMADZU, Japan). Fourier transform infrared (FTIR) spectra were measured on Bio-Rad FTS-6000 spectrometer. CD measurement was performed on a Biologic MOS-450 (Claix, France) at room temperature in a 0.1 cm path cell. The CD signals were recorded from 190 to 260 nm using a bandwidth of 4.0 nm and a scanning rate of 50 nm/min. SEM images were recorded on an FEI NanoSEM 430 Scanning Electron Microscope. Atomic force microscopy (AFM) images were acquired using a Benyuan CSPM5000s scanning probe microscope in tapping mode."}}}
{"substance": "PEGylated salmon calcitonin [PEG-sCT]", "values": [{"measurement": "half-life of PEG-sCT", "setting": "[1]", "result": "~ 83 min"}, {"measurement": "secondary structure of PEG-sCT released from the film (CD spectra vs native drug)", "setting": "[2]", "result": "remains unchanged"}]}
